Measured values taken from the nanobody polyreactivity screen of Harvey et al. (2022).

Assay: yeast display, Sf9 membrane polyspecificity reagent, FACS + sequencing; frameworks hold sequencing errors
Summary of the method: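 In a synthetic yeast display library (Saccharomyces cerevisiae BJ5465), nanobody expression was induced with galactose for 36–48 hours. FACS gates were set low and high (top ~1%) using anti-HA fluorescence for expression and streptavidin fluorescence for binding of the Sf9 membrane reagent. Each polyreactivity label is drawn from the gate of origin.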

Sequence | polyreactivity (PSR sort gate)
QVQLVESGGGLVQAGGSLRLSCAASGRIFADNAMGWYRQAPGKERELVATISRNGGRTSYADSVKGRFTISRDNAKNTVYLQMNSLNPEVTAVYYCAVRAPGSSEGYYWGQGSQVTVSS | low polyreactivity
QVQLVESGGGLVQAGGSLRLSCAASGRIILVYAMGWYRQAPGKERELVAAISSGGSTYYADSVKGRLTISRDNAKNTVYLQMNSLKPEDTAVYYCAARTAVGPIRSYWYDYWGQGTQVTVSS | low polyreactivity
QVQLVEAGGGLVQAGGSLRLSCAPSGFTFGSYARRCYRQAPGKERELVAAIRLSGGSTTYADSVKGRFTITRDNEKKTVYLQMNSLKAEDTAVYYCAARVHVGYYWTFYYWGQGTQVTVSS | high polyreactivity
QVQLVESWGGLVQAGGSLRLSCAASGSTFFSYAMGWYRQAPGKERELVAGIEWNGGDTNYADSVKGRFTISRDNAKNTVYLQMNSRKPVDTAVYYCATDYSYPGPFRRRERFDYWGQGTQVTVSS | low polyreactivity
QVQLVESGAGLVKAGGSLRLSSAASGSTFGEYDMGWYRQAPGKERELVASITFSAGSTDYADSVKGRFTISRDNAKNTVYLQMNSLNPEDTAVYYCAADGWWPWEYDYWGQGTQGTVSS | low polyreactivity
QVQLVESGGGLVQAGGSLRLSCAASGITFAGYARGWYRQAPGKERELVAAISGSGGSTYYADSVKGRFTISRDNAKNTVYLQMNSLKPEDTAVYYCNADVVPQYYSWGQGTQVTVSS | low polyreactivity
QVQLVESGGGLFQAGGSLRLSCAASGSIFFYNNMGWYRQAPGKERELVDAISASGGRTYYADSVKGRFTISRDNAKNSVYLQMYSLKPEDTAVYYCAVRVPYRGYTRYDYWGQGTQVTVSS | high polyreactivity
QVQLVESGGGLVQAGGSLRLSCAASGYIFLRNAKGWSRQAPGKERELVAAIRRTGGSTYYADSVKGRFTISRDIAKNTVYLDMNSLKPEDTAVYYCAKRSYTGYEYLGQGTQVTVSS | low polyreactivity
QVQLVESGGGLVQAGGSLRLSCAASGNILPVYAMGWYRQAPGKEREFVAAITSRGGSTYYADSVKGRFTISRDNAKITVYLQMNSLKPDDTAVYYCAAKYLRAYGYWGQGTQVTVSS | high polyreactivity
QVQLVESGGGLVQAGGSLRLSCAASGSIFRYYAMGWYRQAPGKERELVAAIRVSTGSTSYADSVKGRFTISRDNAKKSVYLQMNSLIPAVTAVYYCNARSRLVIAYRQHNYWGQGTQVTVSS | high polyreactivity
QVQLVESGAGVVQAGGSLRLSCAASGSTFYRYAMGWYRQAPGKERELVATITNSGGSTYYADSVKGRFTISRDNAKNTVYLQMNSLKPEDTAVYYCARVRSRNTGYYYWGQGTQVTVSS | high polyreactivity
QVQLVESGGGLVQAVGSLRLSCAASGSTFKRNAMGWYRQAPGKERELVAAITSGGSTYYADSVKGRFTISRDNAKNTVYLQMNSLKPEVTAVYYCNKVPYLKLKMDYWGQGTQVTVSS | high polyreactivity
QVQLVESGGGLVQAGGSLRLSCAASGSIFDSYAMGWYRQAPGKERELVADITSDGSTHYADSVKGRFTISRDNAKNSVYLQMNSLKPEDTAVYYCAAALPLVDFYDYWGQGTQVTVSS | low polyreactivity
QVQLVESGGGLVQAGGSLRLSCAASGLIFYSYAMGWYRQAPGKERELVAAINGGGGSTYYADSVKGRFTISRDNAKNTVYLQMNSLKPEDTAVYYCAAVRSIVDWGLMYYWGQGTQVTVSS | high polyreactivity
QVQLVESGGGLVQAGGSLRLSCAASGFTFKRNAMGWYRQAPGKERELVAAISWSGSRTYADSVKGRFTISRDNAKNTVYLQMNSLKPEDTAVYYCAASPGRRRRPYASLIRYDYWGQGTQVTVSS | high polyreactivity
QVQLVESGGGLVQAGGRLSLSCAASGRTFYRYAMGWYRQAPGKDRELVAAISTRGGTTYYADSVKGRFTFSRDNAKNSVYLQMNSLKPEDTAVYYCAADSVYAEYDSWGQGTQVTVSS | low polyreactivity

Sequence | polyreactivity (PSR sort gate)
QVQLVESGGGLVQAGGSLRLSCAASGLTFGFYAMGWYRQAPGKERELVAGISNGGSTNYADSVKARFTISRDNAKNTVYLQMNSLKPEDTAVFYCAAQGEYGFTAYYPGDSWGQGTQVTVSS | low polyreactivity
QVQLVESGGGLVQAGGSLRLSCAASGFIFYPNAMGWYRQAPGKERELVAAISSSTGSTYYADSVKGRFTISRDNAKNTVYLQMNSLNRVDTAGYYCAADLEYYPIGGDLQEREYWGQGTQVTVSS | low polyreactivity
QVQLVESGGGLVQAGGSLRLSCAASGSTFVYYDMGWYRQAPGKERELVAAITGSVDSTYYADSVKGRFTISRDNAKNTVYLQMNSLKPEDTAVYYCAADTYSTYWGQGTQVTVSS | low polyreactivity
QVQLVESGGGLVQAGGSLRLSCAASGRIFGVYAMGWYRQAPGKERELFADISWSGSGTYADSVKGRFTISRDNAKNTVYLQMNSLKPEDTAVYYCNVDPAQIHAGYVGYDYWGQGTQVTVSS | low polyreactivity
QVQLVESGGGLVQAGGSLRLSCAASGRIFLYAMGWYRQAPGKERELVAAINRGGSTYYADSVKGRFTISRDNAKNTVYLEMNSLKPEDTAVYYCAAKRLTCRQHDYWGQGTQVTVSS | high polyreactivity
QVPLVESGGGLVQAGGSLRLSCAASGHTFRFYTMGWYRQAPGKEREFVAAIRRRTGSTYYADSVKGRFTISRDNAKNTVYLQMNSLKPEDTAVYYCAAESRYYYRFYYGYHYDYWGQGTQVTVSS | high polyreactivity
QVQLVESWGGLFQAGGRLRLSSAASGFTFPRYAMGWYRHSPGKERELVAAISRGGSTNYADSVKGRFTISRDNAMNTVYLQMNSLKPEVTAVYYCNVRLEYRYYRGDYWGQGTQVTVSS | high polyreactivity
QVQLVESGGGLVQAGGSLRLSCAATGSTFYHYAMGWYRQAPGKEREFVAAISTSGGRTYYADSVKGRFTISRDNAKNTVYLQMNSLKPEDTAVYYCAARPGSWYPSVPSYNYWGQGTQVTVSS | low polyreactivity
QFQLVESGGGLFQAGGSLRLSSAASGITFRYYAMGWYRQAPGKERELVAAITRSGSSTFYADSVKGRFTISLDNAKNTVYLQMNSLKPEDTAVYYCAAESVRAVFPDRYKYWGQGTQVTVSS | high polyreactivity
QVQLVESGGGLVQAGGSLRLSCAASGRTFFNYAMGWYRQAPGKERELVAAISFSDGSTYYADSVKGRFTISRDNAKNTVYLQMNSLKPEDTADYYCAAQPGRRAGRSGFDYWGQGTQVTVSS | high polyreactivity
QVQLVESGGGLVQAGGSLRLSCAASGIIFQSYTMGWYRPATGKERELVAAIDSGGSTYYADSVKGRFTISRDNAKNTVYLQMNSLKREDTAVYYCAAEPDTYWYTFYYWGQGTQVTVSS | low polyreactivity
QVQLVESGGGLVQAGGSLRLSCAASGSTFWIYTMGWYRQAPGKERELVAAITWSGGRTYYADSVKGRFTISRDNAKNTVYLQMNSLKPEDTAVYYCNADVYSYRPSTIQRYVLFDYWGQGTQVTVSS | low polyreactivity
QVQLVESGGGLVQAGGSLRLSCAASGRIVHQYAMGWNRQAPGKERELVAAITTRGTSTYYADSVKGRFTISRDNAKNTVYLQMNSLKPEDTAVYYCAAKFFGSVGHVAGDYWGQGTLVTVSS | high polyreactivity
QVQLVESGGGLVQAGGSLRLTCAASGFTFDRYAMGWYRQAPGKEREVVAAISRSGTSTYYADSVKGRFTISRDNAKNTVYLQMNSLKPEDTAVYYCATRYNVYFPSRRYQYDYWGQGSQVTVSS | high polyreactivity
QVQLVESGGGLVQAGGSLRLSCAASGLTFELYAMGWYRQAPGKERELVAAITWSGGRTYYADSVKGRFTISRDNAKNTVYLQMNSLKPEDTAVYYCAADVYPGYVGSQEYDYWGQGTQVTVSS | low polyreactivity
QVQLVESGGGLVQAGGSLRLSCAASGLTFRVYAMGWYRQAPGKERELVAAITGGGRTYYADSVKGRFTISRDNAKNTVYLQMNSLKPEDTAVYYCAAAGYYVWGQGTQVTVSS | high polyreactivity
